Test results reported in US20250136713A1 (DENALI THERAPEUTICS, published 2025).

Legend:
[1] = target: T1, recombinant HER2 extracellular domain (ECD) (human, UniProt P04626 23-652); test: SPR (Biacore 8K), antibody captured by anti-human Fab, HER2 ECD injected, 1:1 fit
T1 construct: extracellular domain; also called HER2 ECD
Protocol: (§1) HER2 extracellular domain (ECD) binding affinities of engineered anti-HER2 antibodies were measured by SPR using a Biacore 8K instrument. Antibodies were captured on Biacore™ Series S CM5 sensor chips immobilized with mouse anti-human Fab (human Fab capture kit from GE Healthcare) followed by injections of serial 3-fold dilutions of recombinant HER2 ECD at a flow rate of 30 μL/min. Each sample was analyzed using a 3-minute association followed by a 10-minute dissociation. After each injection, the sensor chip was regenerated using a 50 mM glycine pH2.0 regeneration buffer. A 1:1 Languir model of simultaneous fitting of kₒₙ and koff was used for kinetics analysis.

[2] = target: T1, recombinant HER2 extracellular domain …; test: as above; remark: listed apart in the source
Protocol: as §1

[3] = target: T1, recombinant HER2 extracellular domain …; test: as above; remark: listed apart in the source
Protocol: as §1

[4] = target: T1, recombinant HER2 extracellular domain …; test: SPR (Biacore 8K), antibody captured by anti-human Fab, HER2 ECD injected, 1:1 fit; LC SEQ ID NO: 87 paired with Anti-HER2_D2 heavy chain control (SEQ ID NO: 92)
Protocol: as §1

[5] = target: T1, recombinant HER2 extracellular domain …; test: SPR (Biacore 8K), antibody captured by anti-human Fab, HER2 ECD injected

| Binder | Kd [2] | other results |
| --- | --- | --- |
| SEQ ID NO: 10 light chain paired with Anti-HER2_D2 heavy chain control (SEQ ID NO: 92) (antibody, human IgG1, kappa, V domains shown) VH: EVQLVESGGGLVQPGGSLRLSCAASGFTFTDYTMDWVRQAPGKGLEWVADVNPNSGGSIYNQRFKGRFTLSVDRSKNTLYLQMNSLRAEDTAVYYCARNLGPSFYFDYWGQGTLVTVSS VL: not shown |  | Kd [1]: 14 nM |
| Anti-HER2_D2 heavy chain comprising the VH region of SEQ ID NO: 2 paired with Anti-HER2_D4 light chain control (SEQ ID NO: 87) (antibody, V domains shown) VH: EVQLVESGGGLVQPGGSLRLSCAASGFTFTDYTMDWVRQAPGKGLEWVADVNPNSGGSIYNQRFKGRFTLSVDRSKNTLYLQMNSLRAEDTAVYYCARNLGPLFYFDYWGQGTLVTVSS VL: not shown | 28 nM |  |
| SEQ ID NO: 10 light chain paired with anti-HER2_D2 heavy chain comprising the VH region of SEQ ID NO: 1 (antibody, V domains shown) VH: EVQLVESGGGLVQPGGSLRLSCAASGFTFTDYTMDWVRQAPGKGLEWVADVNPNSGQSIYNQRFKGRFTLSVDRSKNTLYLQMNSLRAEDTAVYYCARNLGPSFYFDYWGQGTLVTVSS VL: not shown |  | Kd [3]: 4.2 nM |
| Anti-HER2_D2 heavy chain comprising the VH region of SEQ ID NO: 68 paired with Anti-HER2_D4 light chain control (SEQ ID NO: 87) (antibody, V domains shown) VH: EVQLVESGGGLVQPGGSLRLSCAASGFTFTDYTMDWVRQAPGKGLEWVADVNPNSGGSIYNQRFKGRFTLSVDRSKNTLYLQMNSLRAEDTAVYYCARNLGPFFYFDYWGQGTLVTVSS VL: not shown | 9.8 nM |  |
| SEQ ID NO: 10 light chain paired with anti-HER2_D2 heavy chain comprising the VH region of SEQ ID NO: 2 (antibody, V domains shown) VH: EVQLVESGGGLVQPGGSLRLSCAASGFTFTDYTMDWVRQAPGKGLEWVADVNPNSGGSIYNQRFKGRFTLSVDRSKNTLYLQMNSLRAEDTAVYYCARNLGPLFYFDYWGQGTLVTVSS VL: not shown |  | Kd [3]: 6.2 nM |
| Anti-HER2_D2 heavy chain comprising the VH region of SEQ ID NO: 1 paired with Anti-HER2_D4 light chain control (SEQ ID NO: 87) (antibody, V domains shown) VH: EVQLVESGGGLVQPGGSLRLSCAASGFTFTDYTMDWVRQAPGKGLEWVADVNPNSGQSIYNQRFKGRFTLSVDRSKNTLYLQMNSLRAEDTAVYYCARNLGPSFYFDYWGQGTLVTVSS VL: not shown | 28 nM |  |
| Anti-HER2_D2 heavy chain comprising the VH region of SEQ ID NO: 64 paired with Anti-HER2_D4 light chain control (SEQ ID NO: 87) (antibody, V domains shown) VH: EVQLVESGGGLVQPGGSLRLSCAASGFTFTDYTMDWVRQAPGKGLEWVADVNPNSGGSIYNRRFKGRFTLSVDRSKNTLYLQMNSLRAEDTAVYYCARNLGPSFYFDYWGQGTLVTVSS VL: not shown | 21 nM |  |
| SEQ ID NO: 9 light chain paired with Anti-HER2_D2 heavy chain control (SEQ ID NO: 92) (antibody, human IgG1, kappa, V domains shown) VH: EVQLVESGGGLVQPGGSLRLSCAASGFTFTDYTMDWVRQAPGKGLEWVADVNPNSGGSIYNQRFKGRFTLSVDRSKNTLYLQMNSLRAEDTAVYYCARNLGPSFYFDYWGQGTLVTVSS VL: not shown |  | Kd [1]: 13 nM |
| SEQ ID NO: 10 light chain paired with anti-HER2_D2 heavy chain comprising the VH region of SEQ ID NO: 3 (antibody, V domains shown) VH: EVQLVESGGGLVQPGGSLRLSCAASGFTFTDYTMDWVRQAPGKGLEWVADVNPNSGQSIYNQRFKGRFTLSVDRSKNTLYLQMNSLRAEDTAVYYCARNLGPLFYFDYWGQGTLVTVSS VL: not shown |  | Kd [3]: 2.1 nM |
| Anti-HER2_D4 light chain control (SEQ ID NO: 87) paired with Anti-HER2_D2 heavy chain control (SEQ ID NO: 92) (antibody, human IgG1, kappa, V domains shown) VH: EVQLVESGGGLVQPGGSLRLSCAASGFTFTDYTMDWVRQAPGKGLEWVADVNPNSGGSIYNQRFKGRFTLSVDRSKNTLYLQMNSLRAEDTAVYYCARNLGPSFYFDYWGQGTLVTVSS VL: not shown | 42 nM | Kd [4]: 41 nM |
| Anti-HER2_D2 heavy chain comprising the VH region of SEQ ID NO: 61 paired with Anti-HER2_D4 light chain control (SEQ ID NO: 87) (antibody, V domains shown) VH: EVQLVESGGGLVQPGGSLRLSCAASGFKFTDYTMDWVRQAPGKGLEWVADVNPNSGGSIYNQRFKGRFTLSVDRSKNTLYLQMNSLRAEDTAVYYCARNLGPSFYFDYWGQGTLVTVSS VL: not shown | 17.5 nM |  |
| Anti-HER2_D2 heavy chain comprising the VH region of SEQ ID NO: 69 paired with Anti-HER2_D4 light chain control (SEQ ID NO: 87) (antibody, V domains shown) VH: EVQLVESGGGLVQPGGSLRLSCAASGFTFTDYTMDWVRQAPGKGLEWVADVNPNSGGSIYNQRFKGRFTLSVDRSKNTLYLQMNSLRAEDTAVYYCARNLGPDFYFDYWGQGTLVTVSS VL: not shown | 10.2 nM |  |
| Anti-HER2_D2 heavy chain comprising the VH region of SEQ ID NO: 62 paired with Anti-HER2_D4 light chain control (SEQ ID NO: 87) (antibody, V domains shown) VH: EVQLVESGGGLVQPGGSLRLSCAASGFMFTDYTMDWVRQAPGKGLEWVADVNPNSGGSIYNQRFKGRFTLSVDRSKNTLYLQMNSLRAEDTAVYYCARNLGPSFYFDYWGQGTLVTVSS VL: not shown | 18.3 nM |  |
| Anti-HER2_D2 heavy chain comprising the VH region of SEQ ID NO: 67 paired with Anti-HER2_D4 light chain control (SEQ ID NO: 87) (antibody, V domains shown) VH: EVQLVESGGGLVQPGGSLRLSCAASGFTFTDYTMDWVRQAPGKGLEWVADVNPNSGGSIYNQRFKGRFTLSVDRSKNTLYLQMNSLRAEDTAVYYCARNLGPWFYFDYWGQGTLVTVSS VL: not shown | 6.1 nM |  |
| Anti-HER2_D2 heavy chain comprising the VH region of SEQ ID NO: 66 paired with Anti-HER2_D4 light chain control (SEQ ID NO: 87) (antibody, V domains shown) VH: EVQLVESGGGLVQPGGSLRLSCAASGFTFTDYTMDWVRQAPGKGLEWVADVNPNSGGSIYNTRFKGRFTLSVDRSKNTLYLQMNSLRAEDTAVYYCARNLGPSFYFDYWGQGTLVTVSS VL: not shown | 32.3 nM |  |
| Anti-HER2_D2 heavy chain comprising the VH region of SEQ ID NO: 70 paired with Anti-HER2_D4 light chain control (SEQ ID NO: 87) (antibody, V domains shown) VH: EVQLVESGGGLVQPGGSLRLSCAASGFTFTDYTMDWVRQAPGKGLEWVADVNPNSGGSIYNQRFKGRFTLSVDRSKNTLYLQMNSLRAEDTAVYYCARNLGPYFYFDYWGQGTLVTVSS VL: not shown | 30 nM |  |
| Anti-HER2_D2 heavy chain comprising the VH region of SEQ ID NO: 60 paired with Anti-HER2_D4 light chain control (SEQ ID NO: 87) (antibody, V domains shown) VH: EVQLVESGGGLVQPGGSLRLSCAASGFNFTDYTMDWVRQAPGKGLEWVADVNPNSGGSIYNQRFKGRFTLSVDRSKNTLYLQMNSLRAEDTAVYYCARNLGPSFYFDYWGQGTLVTVSS VL: not shown | 28 nM |  |
| Anti-HER2_D2 heavy chain comprising the VH region of SEQ ID NO: 63 paired with Anti-HER2_D4 light chain control (SEQ ID NO: 87) (antibody, V domains shown) VH: EVQLVESGGGLVQPGGSLRLSCAASGFHFTDYTMDWVRQAPGKGLEWVADVNPNSGGSIYNQRFKGRFTLSVDRSKNTLYLQMNSLRAEDTAVYYCARNLGPSFYFDYWGQGTLVTVSS VL: not shown | 22.1 nM |  |
| Anti-HER2_D2 heavy chain comprising the VH region of SEQ ID NO: 65 paired with Anti-HER2_D4 light chain control (SEQ ID NO: 87) (antibody, V domains shown) VH: EVQLVESGGGLVQPGGSLRLSCAASGFTFTDYTMDWVRQAPGKGLEWVADVNPNSGGSIYNHRFKGRFTLSVDRSKNTLYLQMNSLRAEDTAVYYCARNLGPSFYFDYWGQGTLVTVSS VL: not shown | 35 nM |  |
| Anti-HER2_D2 light chain control (SEQ ID NO: 94) paired with Anti-HER2_D4 heavy chain control (SEQ ID NO: 93) (antibody, human IgG1, kappa, V domains shown) VH: not shown VL: DIQMTQSPSSLSASVGDRVTITCKASQDVSIGVAWYQQKPGKAPKLLIYSASYRYTGVPSRFSGSGSGTDFTLTISSLQPEDFATYYCQQYYIYPYTFGQGTKVEIKR |  | binding result [5]: no binding |
